From US8409833B2 (Hokko Chemical Industry Co., Ltd., priority 2003, dated 2013)

Assay: Reducing and oxidation activity of recombinant myo-inositol 2-dehydrogenase (BG10669 gene product)
Type: biochemical
Method: The myo-inositol 2-dehydrogenase reducing activity was measured as described below. 5 μl of a reaction solution (200 mM Tris buffer (pH 8.0), 2% of NADH, 1% of scyllo-inosose) was mixed with 5 μl of an enzyme solution, and the mixture was allowed to react at 36° C. for 30 min. Immediately after the reaction, 500 μl of water was added, and the absorbance at 340 nm was measured. From the blank value of a test tube prepared by using water instead of the enzyme solution, the decrease in the absorbance at 340 nm was measured. […] The reaction rate was calculated from the absorbance increments at the respective times.

B1: myo-inositol 2-dehydrogenase: recombinant myo-inositol 2-dehydrogenase, product of BG10669 gene derived from Bacillus subtilis 168 ATCC23857 (protein, UniProt P26935 1-344, looked up)
Inositol …: MSLRIGVIGTGAIGKEHINRITNKLSGAEIVAVTDVNQEAAQKVVEQYQLNATVYPNDDSLLADENVDAVLVTSWGPAHESSVLKAIKAQKYVFCEKPLATTAEGCMRIVEEEIKVGKRLVQVGFMRRYDSGYVQLKEALDNHVIGEPLMIHCAHRNPTVGDNYTTDMAVVDTLVHEIDVLHWLVNDDYESVQVIYPKKSKNALPHLKDPQIVVIETKGGIVINAEIYVNCKYGYDIQCEIVGEDGIIKLPEPSSISLRKEGRFSTDILMDWQRRFVAAYDVEIQDFIDSIQKKGEVSGPTAWDGYIAAVTTDACVKAQESGQKEKVELKEKPEFYQSFTTVQN
oxidation activity on myo-inositol (1% myo-inositol, NAD^+, pH 8.0, 25° C.): have an activity to oxidize myo-inositol | oxidation activity on scyllo-inositol (1% scyllo-inositol, NAD^+, pH 8.0, 25° C.): no activity to oxidize scyllo-inositol | reducing activity on scyllo-inosose (NADH, pH 8.0, 36° C., 30 min): have an activity to reduce scyllo-inosose
